Values quoted from earlier work in publication PMC12043044.

Target: Ubiquitin (UniProt P0CG48)

Sequence of Sla1 SH3-3 (P32790 350-418): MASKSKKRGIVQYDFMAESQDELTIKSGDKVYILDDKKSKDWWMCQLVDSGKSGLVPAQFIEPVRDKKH

Kd: 40 µM
Substance: Sla1 SH3-3 (from UniProt P32790)
